Measurements reported in US20020068706A1.

Columns and labels:
CDK4/cyclin D1 complex = CDK4/cyclin D1 complex (UniProt P11802); test: cell-based or functional assay
cdc2/cyclin B complex = cdc2/cyclin B complex (UniProt P06493); test: cell-based or functional assay
Sequence of cdc2/cyclin B complex (P06493 whole entry, one chain of several): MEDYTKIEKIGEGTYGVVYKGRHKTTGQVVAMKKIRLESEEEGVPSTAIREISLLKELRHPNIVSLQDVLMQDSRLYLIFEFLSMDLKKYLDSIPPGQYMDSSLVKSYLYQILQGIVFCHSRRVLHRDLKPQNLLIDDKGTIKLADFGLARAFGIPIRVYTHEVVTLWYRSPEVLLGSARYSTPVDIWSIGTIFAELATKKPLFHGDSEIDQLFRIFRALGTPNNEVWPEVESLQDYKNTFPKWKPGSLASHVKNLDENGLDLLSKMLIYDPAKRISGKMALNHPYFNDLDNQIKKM

Sequence of CDK4/cyclin D1 complex (P11802 whole entry, chain 1 of 2): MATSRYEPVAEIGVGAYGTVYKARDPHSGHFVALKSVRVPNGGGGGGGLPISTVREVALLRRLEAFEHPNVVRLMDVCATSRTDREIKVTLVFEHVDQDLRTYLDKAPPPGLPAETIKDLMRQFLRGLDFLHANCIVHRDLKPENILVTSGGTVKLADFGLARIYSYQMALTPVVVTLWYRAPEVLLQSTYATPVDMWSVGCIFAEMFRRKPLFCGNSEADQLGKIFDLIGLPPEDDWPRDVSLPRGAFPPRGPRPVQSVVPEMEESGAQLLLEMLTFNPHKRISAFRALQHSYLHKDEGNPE
Sequence of CDK4/cyclin D1 complex (P24385 whole entry, chain 2 of 2, further chain): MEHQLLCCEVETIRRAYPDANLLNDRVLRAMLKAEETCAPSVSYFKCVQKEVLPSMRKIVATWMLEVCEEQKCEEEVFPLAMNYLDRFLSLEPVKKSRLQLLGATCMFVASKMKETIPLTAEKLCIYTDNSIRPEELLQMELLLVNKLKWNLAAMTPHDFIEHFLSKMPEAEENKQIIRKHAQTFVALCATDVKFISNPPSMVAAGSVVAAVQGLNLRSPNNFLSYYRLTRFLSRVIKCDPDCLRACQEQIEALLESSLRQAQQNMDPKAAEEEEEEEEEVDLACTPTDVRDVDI

IC50 of in vitro kinase assay (32P incorporation into Gst-Rb) (CDK4/cyclin D1 complex): 0.063 µM | IC50 of in vitro kinase assay (32P incorporation into Gst-Rb) (cdc2/cyclin B complex): 0.02 µM
Substance: p27 (from UniProt P46527 1-198)
